The values below come from the RNAGym collection of RNA variant scans (doi:10.7554/elife.80360).

B1: HDV Ribozyme (parent)
chain: GGCCGGCAUGGUCCCAGCCUCCUCGCUGGCGCCGGCUGGGCAACAUUCCGAGGGGACCGUCCCCUCGGUAAUGGCGAAUGGGACCCA

In the data set the parent is B1. The data set is described as follows: self-cleavage, relative activity (ratio to wild type); higher = more cleavage; co-transcriptional.
For GGCCGGCAUGCUCCCAGCCUCCUCGCUGGAGCCGGCUGGGCAACAUUCCGAGGGGACCGUCCCCUCGGUAAUGGCGAAUGGGACCCA [G11C C30A], the self-cleavage came out at 0.0804.

Consider GGCCGGCAUGCUCCCAGCCUCCUCGCUGGCGCCGGCUGGGCAACAUUCCGAGGGGACGGUCCCCUCGGUAAUGGCGAAUGGGACCCA [G11C C58G], for which the self-cleavage came to 0.369.

Take GGCCGGCAUGCUCCCAGGCUCCUCGCUGGCGCCGGCUGGGCAACAUUCCGAGGGGACCGUCCCCUCGGUAAUGGCGAAUGGGACCCA [G11C C18G]: the self-cleavage was determined as 0.

Regarding GGCCGGCAUGUUCCCAGCAUCCUCGCUGGCGCCGGCUGGGCAACAUUCCGAGGGGACCGUCCCCUCGGUAAUGGCGAAUGGGACCCA [G11U C19A], the self-cleavage was 0.0382.

Regarding GGCCGGCAUGUUCCCAGCGUCCUCGCUGGCGCCGGCUGGGCAACAUUCCGAGGGGACCGUCCCCUCGGUAAUGGCGAAUGGGACCCA [G11U C19G], the self-cleavage was found to be 0.058.

Turning to GGCCGGCAUGCUCCCAGCCUCCUCGCUGGCGCCGGCUUGGCAACAUUCCGAGGGGACCGUCCCCUCGGUAAUGGCGAAUGGGACCCA [G11C G38U], the self-cleavage came to 0.0845.

As to GGCCGGCAUGCUCCCAGCCUCCUCGCUGGCGCCGGCUGGGCAACAUUCCGAGGGGACCAUCCCCUCGGUAAUGGCGAAUGGGACCCA [G11C G59A], the self-cleavage was found to be 0.434.

For the variant GGCCGGCAUGUUCCCAGCCUCCUCGCUGGCGCCGGCUGGGCAACAUUCCGAGGGGUCCGUCCCCUCGGUAAUGGCGAAUGGGACCCA [G11U A56U], the self-cleavage was 0.391.

For the variant GGCCGGCAUGUUCCCAGCCUCCUCGCUGGCGCCGGCUGGGCAACAUUCCGAGGGGGCCGUCCCCUCGGUAAUGGCGAAUGGGACCCA [G11U A56G], the self-cleavage is 0.378.

For the variant GGCCGGCAUGCUCCCAGCCUCCUCGCUGGCGCCGGCUGGGCAACAUUCCGAGGUGACCGUCCCCUCGGUAAUGGCGAAUGGGACCCA [G11C G54U], the self-cleavage was 0.289.

Consider GGCCGGCAUGCUCCCAGCCUCCUCGCUGGCGCCGGCUGGGCAACAUUCCGACGGGACCGUCCCCUCGGUAAUGGCGAAUGGGACCCA [G11C G52C], for which the self-cleavage worked out at 0.266.

In the case of GGCCGGCAUGCUCCCAGCCUCCUCGCUGUCGCCGGCUGGGCAACAUUCCGAGGGGACCGUCCCCUCGGUAAUGGCGAAUGGGACCCA [G11C G29U], the self-cleavage is 0.0225.

For the variant GGCCGGCAUGUUCCCAGCCUCCUCGCUGGCGCCGGCUGGGCUACAUUCCGAGGGGACCGUCCCCUCGGUAAUGGCGAAUGGGACCCA [G11U A42U], the self-cleavage was determined as 0.0852.

Turning to GGCCGGCAUGCUCCCAGCCUCCUCGCUGGCGCCGGCUGGGCAACAUUCCGAGGGGACCGUCCCCUCGGUAAUGGCGAAUGGGACCUA [G11C C86U], the self-cleavage amounted to 0.38.

For GGCCGGCAUGUUCCCAGCCUCCUCGCUGGCGUCGGCUGGGCAACAUUCCGAGGGGACCGUCCCCUCGGUAAUGGCGAAUGGGACCCA [G11U C32U], the self-cleavage is 0.215.

In the case of GGCCGGCAUGUUCCCAGCCUCCUCGCUGGCGCCGGCUGGGCAUCAUUCCGAGGGGACCGUCCCCUCGGUAAUGGCGAAUGGGACCCA [G11U A43U], the self-cleavage amounted to 0.0893.

As for GGCCGGCAUGCUCCCAGCCCCCUCGCUGGCGCCGGCUGGGCAACAUUCCGAGGGGACCGUCCCCUCGGUAAUGGCGAAUGGGACCCA [G11C U20C], the self-cleavage came out at 0.0437.

GGCCGGCAUGCUCCCAGCCUCCUCGCUAGCGCCGGCUGGGCAACAUUCCGAGGGGACCGUCCCCUCGGUAAUGGCGAAUGGGACCCA [G11C G28A]: the self-cleavage came out at 0.0225.

For the variant GGCCGGCAUGUUCCCAGCCUACUCGCUGGCGCCGGCUGGGCAACAUUCCGAGGGGACCGUCCCCUCGGUAAUGGCGAAUGGGACCCA [G11U C21A], the self-cleavage was 0.0329.

As to GGCCGGCAUGUUCUCAGCCUCCUCGCUGGCGCCGGCUGGGCAACAUUCCGAGGGGACCGUCCCCUCGGUAAUGGCGAAUGGGACCCA [G11U C14U], the self-cleavage amounted to 0.406.

As to GGCCGGCAUGUUCGCAGCCUCCUCGCUGGCGCCGGCUGGGCAACAUUCCGAGGGGACCGUCCCCUCGGUAAUGGCGAAUGGGACCCA [G11U C14G], the self-cleavage turned out to be 0.0692.

For the variant GGCCGGCAUGCUCCCAGCCUCCUCGCUGGCGCCGGCUGGGCAACAGUCCGAGGGGACCGUCCCCUCGGUAAUGGCGAAUGGGACCCA [G11C U46G], the self-cleavage was 0.133.

As for GGCCGGCAUGCUCCCAGCCUCCUCGCUGGCGCCGGCUGGGCAACAUUCCGAGGGGACCGUCCCCUCGGUAACGGCGAAUGGGACCCA [G11C U72C], the self-cleavage stood at 0.119.

For the variant GGCCGGCAUGCUCCCAGCCUCCUCGCUGGCGCCGGCUGGGCAACAUUCCGAGGGGACCGUCCCCUCGGUAAGGGCGAAUGGGACCCA [G11C U72G], the self-cleavage amounted to 0.

With GGCCGGCAUGCUCCCAGCCUCCUCGCUGGCGCCGGCUGGGCAACAUUCCGAGGGGACCGUCCCCUCGGUAAUGGCGAAUGGGAUCCA [G11C C84U], the self-cleavage came to 0.18.

On to GGCCGGCAUGUUCCCAGACUCCUCGCUGGCGCCGGCUGGGCAACAUUCCGAGGGGACCGUCCCCUCGGUAAUGGCGAAUGGGACCCA [G11U C18A], for which the self-cleavage amounted to 0.0674.

Take GGCCGGCAUGUUCCCAGUCUCCUCGCUGGCGCCGGCUGGGCAACAUUCCGAGGGGACCGUCCCCUCGGUAAUGGCGAAUGGGACCCA [G11U C18U]: the self-cleavage is 0.0504.

As to GGCCGGCAUGUUCCUAGCCUCCUCGCUGGCGCCGGCUGGGCAACAUUCCGAGGGGACCGUCCCCUCGGUAAUGGCGAAUGGGACCCA [G11U C15U], the self-cleavage came to 0.258.

Regarding GGCCGGCAUGUUCCAAGCCUCCUCGCUGGCGCCGGCUGGGCAACAUUCCGAGGGGACCGUCCCCUCGGUAAUGGCGAAUGGGACCCA [G11U C15A], the self-cleavage was found to be 0.155.

GGCCGGCAUGCUCCCAGCCUCCUCGCUGGCGCCGGCUGGGCAACAUUCCGAGGGGACCGUCCCCUCGGUAAUGGCGAAUCGGACCCA [G11C G80C]: the self-cleavage was determined as 0.295.

As for GGCCGGCAUGCUCCCAGCCUCCUCGCUGGCGCCGGCUGGGCAACAUUCCGAGGGGACCGUCCCCUCGGUAAUGGCGAAUUGGACCCA [G11C G80U], the self-cleavage turned out to be 0.0621.

As to GGCCGGCAUGCUCCCAGCCUCCUCGCUGGCGCCGGCUGGGCAACAUUCCGAGGGGACCGUCCCCUCGGUAAUGGCGAAUGGAACCCA [G11C G82A], the self-cleavage was found to be 0.262.
